Measured values reported in patent US20210079109A1.

Experiments:
human CD63 (human) [1] = target: human CD63 (human) (UniProt P08962); assay: ECL, U87MG cells; signal < 100 RLU, classed non-binder
human CD63 (human) [2] = target: human CD63 (human) (UniProt P08962); assay: imaging of stained T47D cells, 10 ug/mL antibody
human CD63 (human) [3] = target: human CD63 (human) (UniProt P08962); assay: flow cytometry, HEK293 cells

human CD63 (human), sequence (P08962 2-238 limits assumed): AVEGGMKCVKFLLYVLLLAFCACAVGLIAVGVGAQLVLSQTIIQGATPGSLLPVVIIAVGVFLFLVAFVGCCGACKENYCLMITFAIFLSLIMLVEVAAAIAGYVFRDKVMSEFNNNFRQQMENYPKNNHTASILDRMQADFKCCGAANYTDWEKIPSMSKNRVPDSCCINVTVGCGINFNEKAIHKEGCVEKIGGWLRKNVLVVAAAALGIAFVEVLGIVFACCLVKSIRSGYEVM

Row | binding ratio at 3.7 nM vs NIH3T3 (human CD63 (human) [1]) | Total RFU at 4C (human CD63 (human) [2]) | Total RFU at 37C (2 h) (human CD63 (human) [2]) | S/N (MFI over no-antibody wells) (human CD63 (human) [3]) | Substance
1 | 4 fold | 138000 RFU | -80500 RFU |  | Human IgG4 isotype control (antibody)
2 |  |  |  | 1.4 | Isotype Control 1 (antibody)
3 |  |  |  | 1.5 | Isotype Control 2 (antibody)
4 |  | -93900 RFU | 57400 RFU |  | mIgG1 Isotype control (antibody)
5 |  | -73400 RFU | 65400 RFU |  | mIgG2a Isotype control (antibody)
